The supplement of paper PMC10065799, “High-throughput profiling of sequence recognition by tyrosine kinases and SH2 domains using bacterial peptide display” (eLife, 2023)

Assays:
[1] = target: c-Src SH2; assay: SH2 binding enrichment of the phosphorylated peptide, bacterial display (enrichment ratio); higher = better substrate or ligand; peptides without Tyr show the background
[2] = target: SHP2-C SH2; assay: as above
[3] = target: Grb2 SH2 (UniProt P62993); assay: as above
[4] = target: Fes (UniProt P07332); assay: phosphorylation enrichment, bacterial display (enrichment ratio); higher = better substrate or ligand; peptides without Tyr show the background
Chain of Fes (P07332 whole entry, looked up): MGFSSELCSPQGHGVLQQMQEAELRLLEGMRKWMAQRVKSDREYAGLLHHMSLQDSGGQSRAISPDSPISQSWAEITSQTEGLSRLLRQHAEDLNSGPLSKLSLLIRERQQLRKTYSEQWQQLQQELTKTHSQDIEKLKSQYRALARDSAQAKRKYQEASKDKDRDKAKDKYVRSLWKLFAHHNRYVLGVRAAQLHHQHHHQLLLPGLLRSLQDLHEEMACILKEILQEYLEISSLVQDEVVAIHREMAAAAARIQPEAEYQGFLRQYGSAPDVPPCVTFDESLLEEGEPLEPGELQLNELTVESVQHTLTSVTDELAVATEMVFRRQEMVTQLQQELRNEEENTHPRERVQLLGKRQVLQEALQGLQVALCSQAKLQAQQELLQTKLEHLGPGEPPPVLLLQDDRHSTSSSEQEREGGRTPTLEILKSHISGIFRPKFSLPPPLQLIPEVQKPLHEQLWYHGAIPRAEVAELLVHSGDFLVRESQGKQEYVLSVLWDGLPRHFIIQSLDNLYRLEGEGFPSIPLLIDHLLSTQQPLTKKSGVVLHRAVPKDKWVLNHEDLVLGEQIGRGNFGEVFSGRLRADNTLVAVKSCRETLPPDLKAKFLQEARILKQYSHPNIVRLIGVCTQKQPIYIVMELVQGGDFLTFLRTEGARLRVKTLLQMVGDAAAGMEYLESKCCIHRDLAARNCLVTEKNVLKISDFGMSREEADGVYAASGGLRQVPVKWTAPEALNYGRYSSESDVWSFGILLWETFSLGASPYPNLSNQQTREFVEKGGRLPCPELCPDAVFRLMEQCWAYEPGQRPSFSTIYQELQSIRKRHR

[5] = target: FGFR3 (UniProt P22607); assay: as above
Chain of FGFR3 (P22607 whole entry, looked up): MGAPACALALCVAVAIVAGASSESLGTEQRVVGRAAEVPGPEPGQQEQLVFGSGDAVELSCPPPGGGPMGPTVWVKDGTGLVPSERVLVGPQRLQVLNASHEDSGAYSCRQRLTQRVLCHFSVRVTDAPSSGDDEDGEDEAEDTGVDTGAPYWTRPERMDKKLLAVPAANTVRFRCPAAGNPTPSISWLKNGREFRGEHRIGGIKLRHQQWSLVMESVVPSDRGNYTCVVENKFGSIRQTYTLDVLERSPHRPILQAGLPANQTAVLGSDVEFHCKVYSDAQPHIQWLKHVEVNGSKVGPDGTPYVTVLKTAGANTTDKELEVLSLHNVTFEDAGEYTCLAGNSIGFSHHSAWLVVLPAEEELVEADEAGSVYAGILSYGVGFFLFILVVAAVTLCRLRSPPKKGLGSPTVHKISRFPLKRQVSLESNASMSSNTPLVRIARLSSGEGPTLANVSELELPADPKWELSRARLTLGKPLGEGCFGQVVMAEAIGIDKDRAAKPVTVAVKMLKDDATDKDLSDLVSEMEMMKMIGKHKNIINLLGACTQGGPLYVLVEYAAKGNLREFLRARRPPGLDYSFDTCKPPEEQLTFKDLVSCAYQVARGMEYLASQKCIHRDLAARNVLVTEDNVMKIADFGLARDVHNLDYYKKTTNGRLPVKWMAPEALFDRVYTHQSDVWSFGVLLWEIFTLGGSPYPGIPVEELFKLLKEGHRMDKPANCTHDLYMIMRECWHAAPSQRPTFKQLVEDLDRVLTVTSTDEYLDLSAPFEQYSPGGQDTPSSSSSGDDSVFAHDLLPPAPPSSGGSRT

[6] = target: EPHB2 (UniProt P29323); assay: as above
[7] = target: FGFR1 (UniProt P11362); assay: as above
Chain of FGFR1 (P11362 whole entry, looked up): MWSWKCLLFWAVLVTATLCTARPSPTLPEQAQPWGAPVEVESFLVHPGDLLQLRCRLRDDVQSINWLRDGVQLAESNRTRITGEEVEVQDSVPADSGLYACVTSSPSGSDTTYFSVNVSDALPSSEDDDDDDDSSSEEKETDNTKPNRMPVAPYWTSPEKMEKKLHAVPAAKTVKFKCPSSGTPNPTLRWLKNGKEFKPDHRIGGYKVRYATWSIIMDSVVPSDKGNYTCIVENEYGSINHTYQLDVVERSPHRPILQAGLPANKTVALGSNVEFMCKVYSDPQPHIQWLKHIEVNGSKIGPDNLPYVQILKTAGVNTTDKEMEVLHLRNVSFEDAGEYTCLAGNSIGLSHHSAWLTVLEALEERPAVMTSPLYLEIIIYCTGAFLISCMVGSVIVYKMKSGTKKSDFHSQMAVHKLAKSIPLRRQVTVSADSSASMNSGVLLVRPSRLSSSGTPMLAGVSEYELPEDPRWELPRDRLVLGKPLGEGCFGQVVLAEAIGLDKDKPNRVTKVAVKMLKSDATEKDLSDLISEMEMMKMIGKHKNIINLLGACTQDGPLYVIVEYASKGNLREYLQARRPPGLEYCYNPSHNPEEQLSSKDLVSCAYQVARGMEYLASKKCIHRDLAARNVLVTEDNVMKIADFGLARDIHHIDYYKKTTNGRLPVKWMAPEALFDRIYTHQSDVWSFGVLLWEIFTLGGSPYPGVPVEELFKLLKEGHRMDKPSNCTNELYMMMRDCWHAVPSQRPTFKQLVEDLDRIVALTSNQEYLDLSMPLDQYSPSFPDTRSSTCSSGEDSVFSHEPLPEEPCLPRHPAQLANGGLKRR

[8] = target: MERTK (UniProt Q12866); assay: as above
Chain of MERTK (Q12866 whole entry, looked up): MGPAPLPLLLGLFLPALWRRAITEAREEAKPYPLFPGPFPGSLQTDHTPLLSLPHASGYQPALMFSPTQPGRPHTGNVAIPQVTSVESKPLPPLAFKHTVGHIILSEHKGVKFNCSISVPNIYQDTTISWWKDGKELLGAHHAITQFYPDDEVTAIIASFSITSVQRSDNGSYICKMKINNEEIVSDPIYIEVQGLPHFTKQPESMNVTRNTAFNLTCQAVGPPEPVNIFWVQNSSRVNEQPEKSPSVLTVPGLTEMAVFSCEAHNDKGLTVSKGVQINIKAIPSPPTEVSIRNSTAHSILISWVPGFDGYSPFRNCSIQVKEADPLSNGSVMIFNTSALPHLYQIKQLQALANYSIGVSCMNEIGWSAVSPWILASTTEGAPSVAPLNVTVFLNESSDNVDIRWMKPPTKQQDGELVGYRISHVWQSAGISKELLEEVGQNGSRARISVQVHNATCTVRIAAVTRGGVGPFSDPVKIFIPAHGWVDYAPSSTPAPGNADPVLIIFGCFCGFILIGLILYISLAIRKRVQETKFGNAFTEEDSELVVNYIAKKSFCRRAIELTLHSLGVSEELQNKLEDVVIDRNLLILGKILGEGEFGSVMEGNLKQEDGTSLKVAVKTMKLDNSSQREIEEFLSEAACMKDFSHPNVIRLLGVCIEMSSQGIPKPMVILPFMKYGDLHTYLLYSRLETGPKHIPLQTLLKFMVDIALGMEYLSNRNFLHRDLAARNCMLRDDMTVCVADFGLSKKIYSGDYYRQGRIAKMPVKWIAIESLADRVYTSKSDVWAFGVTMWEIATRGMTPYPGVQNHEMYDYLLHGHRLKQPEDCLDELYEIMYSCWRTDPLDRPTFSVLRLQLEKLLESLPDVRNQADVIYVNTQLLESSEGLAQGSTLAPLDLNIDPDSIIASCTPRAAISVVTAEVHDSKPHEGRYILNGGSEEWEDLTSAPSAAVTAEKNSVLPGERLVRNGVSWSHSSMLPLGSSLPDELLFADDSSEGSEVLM

[9] = target: EPHB1 (UniProt P54762); assay: as above
Chain of EPHB1 (P54762 whole entry, looked up): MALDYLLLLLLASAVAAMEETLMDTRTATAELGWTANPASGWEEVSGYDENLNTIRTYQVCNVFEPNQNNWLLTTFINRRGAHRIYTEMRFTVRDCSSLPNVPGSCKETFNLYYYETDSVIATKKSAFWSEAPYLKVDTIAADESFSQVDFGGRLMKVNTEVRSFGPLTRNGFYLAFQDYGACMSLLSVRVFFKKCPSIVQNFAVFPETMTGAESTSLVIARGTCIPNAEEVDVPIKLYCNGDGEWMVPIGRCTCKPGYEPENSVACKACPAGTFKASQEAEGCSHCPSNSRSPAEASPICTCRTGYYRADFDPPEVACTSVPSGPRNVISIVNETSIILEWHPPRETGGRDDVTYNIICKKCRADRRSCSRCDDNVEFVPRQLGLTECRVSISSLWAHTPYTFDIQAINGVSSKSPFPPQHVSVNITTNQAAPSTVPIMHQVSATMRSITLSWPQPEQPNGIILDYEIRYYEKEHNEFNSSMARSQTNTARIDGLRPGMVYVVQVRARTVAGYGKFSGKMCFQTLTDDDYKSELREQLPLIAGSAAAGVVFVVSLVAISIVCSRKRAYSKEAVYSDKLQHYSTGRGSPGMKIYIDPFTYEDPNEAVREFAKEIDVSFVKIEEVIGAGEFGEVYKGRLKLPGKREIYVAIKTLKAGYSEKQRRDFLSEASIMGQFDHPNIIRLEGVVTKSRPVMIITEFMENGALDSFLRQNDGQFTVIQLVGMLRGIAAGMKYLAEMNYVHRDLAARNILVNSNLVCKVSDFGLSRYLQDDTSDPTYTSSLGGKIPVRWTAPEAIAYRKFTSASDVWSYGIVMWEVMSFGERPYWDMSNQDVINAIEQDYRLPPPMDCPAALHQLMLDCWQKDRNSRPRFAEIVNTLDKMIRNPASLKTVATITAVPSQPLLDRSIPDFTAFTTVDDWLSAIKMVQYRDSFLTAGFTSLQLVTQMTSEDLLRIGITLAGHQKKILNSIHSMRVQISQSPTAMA

[10] = target: Hck (UniProt P08631); assay: as above
[11] = tested on: c-Src; assay: as above
[12] = tested on: c-Abl (mouse); assay: as above
[13] = target: Jak2 (UniProt O60674); assay: as above
[14] = tested on: AncSZ; assay: as above
[15] = tested on: Fer (mouse); assay: as above
[16] = target: Fyn (UniProt P06241); assay: as above
Chain of Fyn (P06241 whole entry, looked up, the tested form may be a part): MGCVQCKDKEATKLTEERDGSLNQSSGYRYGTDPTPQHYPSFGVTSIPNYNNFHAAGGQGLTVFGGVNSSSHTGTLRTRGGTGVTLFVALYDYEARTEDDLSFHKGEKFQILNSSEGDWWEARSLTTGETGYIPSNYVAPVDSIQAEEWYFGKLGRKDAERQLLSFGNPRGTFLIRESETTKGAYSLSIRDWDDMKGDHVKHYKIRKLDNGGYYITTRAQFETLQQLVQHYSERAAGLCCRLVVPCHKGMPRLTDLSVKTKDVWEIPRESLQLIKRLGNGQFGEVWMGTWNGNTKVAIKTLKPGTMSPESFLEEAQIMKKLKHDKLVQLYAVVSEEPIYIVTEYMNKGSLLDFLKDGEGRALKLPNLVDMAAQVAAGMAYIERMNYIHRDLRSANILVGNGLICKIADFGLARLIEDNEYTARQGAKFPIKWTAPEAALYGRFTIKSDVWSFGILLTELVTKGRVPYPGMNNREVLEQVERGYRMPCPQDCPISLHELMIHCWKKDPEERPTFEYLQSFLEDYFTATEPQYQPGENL
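For SH2 binding enrichment of the phosphorylated peptide, bacterial display in this document: peptide library displayed on the E. coli surface as eCPX fusions, selected cells deep-sequenced, score is each peptide's frequency after selection divided by its frequency in the input.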
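For phosphorylation enrichment, bacterial display in this document: 11-residue human phosphosite peptides and single-mutation variants displayed on the E. coli surface, counted by deep sequencing, each peptide's frequency after selection divided by its frequency in the unselected input library; frequency after pTyr selection over input frequency; kinase dosed for 20-30% of maximal phosphorylation in three min.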

Row | Sequence | SH2 binding enrichment [1] | SH2 binding enrichment [2] | SH2 binding enrichment [3] | phosphorylation enrichment [4] | phosphorylation enrichment [5] | phosphorylation enrichment [6] | phosphorylation enrichment [7] | phosphorylation enrichment [8] | phosphorylation enrichment [9] | phosphorylation enrichment [10] | phosphorylation enrichment [11] | phosphorylation enrichment [12] | phosphorylation enrichment [13] | phosphorylation enrichment [14] | phosphorylation enrichment [15] | phosphorylation enrichment [16]
1 | QNTGDDFDLFG [PTPN11_Y62_Y62D_YF] | 0.402 | 0.442 | 0.768 | 1.75 | 1.1 | 1.02 | 0.936 | 0.634 | 0.599 | 0.748 | 0.689 | 1.11 | 1.6 | 1.7 | 0.7 | 0.54
2 | KILGRYYETSS [PAX2_Y72_G76S] | 1.62 | 0.726 | 0.89 | 0.65 | 0.541 | 0.502 | 0.435 | 0.453 | 0.428 | 0.344 | 0.51 | 0.613 | 0.595 | 0.568 | 0.447 | 0.424
3 | NDQPDYDSVAS [GIT2_Y392] | 0.658 | 0.767 | 0.902 | 1.19 | 0.76 | 0.671 | 0.522 | 0.511 | 0.63 | 0.735 | 0.992 | 0.849 | 1.23 | 1.3 | 0.558 | 0.546
4 | RAEAQYLLVSN [LRIG1_Y1054] | 0.431 | 0.62 | 0.884 | 0.761 | 1.78 | 0.551 | 2.61 | 0.681 | 0.639 | 0.493 | 0.648 | 0.665 | 0.933 | 0.897 | 0.43 | 0.466
5 | QMVGMYASFFM [AVPR2_Y124_S127F_YF] | 0.602 | 0.782 | 0.642 | 2.03 | 1.5 | 2.27 | 0.676 | 5.38 | 3.06 | 5.82 | 8.13 | 4.72 | 2.03 | 1.88 | 5.31 | 9.8
6 | HFVDEYDPTIE [KRAS_Y32] | 0.575 | 0.666 | 0.786 | 1.79 | 0.888 | 0.99 | 0.884 | 0.724 | 0.784 | 0.828 | 0.779 | 1.33 | 1.54 | 1.74 | 0.886 | 0.605
7 | KALKQYRAGPS [DDX27_Y763] | 0.438 | 0.804 | 1.04 | 0.553 | 0.368 | 0.312 | 0.355 | 0.391 | 0.34 | 0.454 | 0.407 | 0.531 | 0.545 | 0.473 | 0.389 | 0.43
8 | DEGVNYFMSKG [FBXO8_Y156] | 0.442 | 0.544 | 0.674 | 0.984 | 0.926 | 0.685 | 0.862 | 0.39 | 0.457 | 0.456 | 0.388 | 0.705 | 0.996 | 1.1 | 0.402 | 0.422
9 | PELINYHQHFS [BTK_Y361_N365Y_YF] | 0.557 | 0.934 | 0.895 | 0.869 | 0.799 | 0.44 | 0.591 | 0.401 | 0.723 | 0.513 | 0.38 | 0.711 | 0.869 | 0.508 | 0.366 | 0.547
10 | KKCTRYIDCDR [ASPA_Y64_L69R] | 0.839 | 0.633 | 0.974 | 1 | 0.542 | 0.445 | 0.417 | 0.461 | 0.402 | 0.37 | 0.427 | 0.72 | 0.691 | 0.832 | 0.406 | 0.323
11 | YETVKYFNNER [ABCB7_Y345] | 9.64 | 1.13 | 0.868 | 0.869 | 1.32 | 0.611 | 1.95 | 0.844 | 0.792 | 1.83 | 1.14 | 0.64 | 0.683 | 0.881 | 9.57 | 1.37
12 | SDGKRYRVPSD [HHIPL2_Y395_H391D] | 0.57 | 0.608 | 0.781 | 0.522 | 0.426 | 0.303 | 0.377 | 0.409 | 0.357 | 0.346 | 0.384 | 0.44 | 0.771 | 0.555 | 0.408 | 0.338
13 | LGIDRYHAIVF [NPSR1_Y147_S143G_YF] | 1.28 | 0.689 | 0.851 | 1.82 | 1.37 | 1.41 | 1.55 | 1.52 | 1.22 | 0.942 | 1.11 | 1.31 | 2.47 | 2.59 | 1.04 | 0.732
14 | SASQEYHIVKK [PDZD2_Y557] | 0.792 | 0.893 | 0.78 | 0.676 | 0.538 | 0.527 | 0.905 | 0.507 | 0.512 | 0.513 | 0.441 | 0.697 | 0.572 | 0.779 | 0.48 | 0.422

Continued, in another order:

Row | SH2 binding enrichment [1] | SH2 binding enrichment [2] | SH2 binding enrichment [3] | Sequence | phosphorylation enrichment [4] | phosphorylation enrichment [5] | phosphorylation enrichment [6] | phosphorylation enrichment [7] | phosphorylation enrichment [8] | phosphorylation enrichment [9] | phosphorylation enrichment [10] | phosphorylation enrichment [11] | phosphorylation enrichment [12] | phosphorylation enrichment [13] | phosphorylation enrichment [14] | phosphorylation enrichment [15] | phosphorylation enrichment [16]
15 | 0.457 | 0.614 | 0.78 | PKEEPYQMQEK [SLC5A3_Y565] | 1.92 | 1.21 | 1.26 | 1 | 0.691 | 0.964 | 0.566 | 0.923 | 0.943 | 1.17 | 2.33 | 0.687 | 0.784
16 | 0.437 | 0.654 | 0.905 | RGGWAYVLHPT [TRMT61A_Y67_V66A] | 1.51 | 0.698 | 0.816 | 0.663 | 0.52 | 0.711 | 0.509 | 0.671 | 0.93 | 1.1 | 1.34 | 0.611 | 0.505
17 | 1.1 | 1.49 | 2.05 | LVMFIYVIFGM [SCN1A_Y1684_A1685V] | 0.673 | 0.604 | 0.615 | 0.583 | 0.365 | 0.496 | 0.571 | 0.275 | 0.468 | 0.477 | 0.694 | 0.366 | 0.517
18 | 0.4 | 0.556 | 0.59 | CDDGKYVFVVT [RPS6KA3_Y488_Y483C_YF] | 1.43 | 0.919 | 0.719 | 0.574 | 0.437 | 0.604 | 0.508 | 0.412 | 0.862 | 1.11 | 1.23 | 0.683 | 0.444
19 | 2.28 | 2.12 | 1.93 | CTTIHYNFLCN [TP53_Y234_M237L_YF] | 0.941 | 0.674 | 0.576 | 0.556 | 0.435 | 0.54 | 0.469 | 0.499 | 0.585 | 0.623 | 0.873 | 0.554 | 0.531
20 | 0.464 | 0.437 | 0.761 | EPVSDYINADI [PTPN11_Y304_N308D] | 1.33 | 0.908 | 0.689 | 0.77 | 0.492 | 0.695 | 0.637 | 0.514 | 9 | 1.12 | 1.5 | 0.614 | 0.581
